Experiments:
[1] = target: T1, ANT2 rationally-designed meganuclease (I-CreI derivative)
T1 chain: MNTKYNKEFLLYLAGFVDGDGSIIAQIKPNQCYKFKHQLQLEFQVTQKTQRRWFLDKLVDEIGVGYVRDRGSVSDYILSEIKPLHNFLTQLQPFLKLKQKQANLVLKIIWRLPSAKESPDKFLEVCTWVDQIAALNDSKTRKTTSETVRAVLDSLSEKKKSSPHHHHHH

[2] = target: T2, LAM2 rationally-designed meganuclease (I-CreI derivative)
T2 chain: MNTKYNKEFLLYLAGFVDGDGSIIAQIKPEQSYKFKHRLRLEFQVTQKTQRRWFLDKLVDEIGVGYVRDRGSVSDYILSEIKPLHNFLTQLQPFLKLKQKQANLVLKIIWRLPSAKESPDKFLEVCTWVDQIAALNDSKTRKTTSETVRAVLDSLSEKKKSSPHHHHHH

[3] = target: T3, ACH2 rationally-designed meganuclease (I-CreI derivative)
T3 chain: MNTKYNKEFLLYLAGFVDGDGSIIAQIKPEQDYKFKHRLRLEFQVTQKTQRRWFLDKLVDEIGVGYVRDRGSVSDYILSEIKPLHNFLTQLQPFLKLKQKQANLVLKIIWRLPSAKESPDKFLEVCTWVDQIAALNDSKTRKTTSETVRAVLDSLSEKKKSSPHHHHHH

[4] = target: T4, MGC2 rationally-designed meganuclease (I-CreI derivative)
T4 chain: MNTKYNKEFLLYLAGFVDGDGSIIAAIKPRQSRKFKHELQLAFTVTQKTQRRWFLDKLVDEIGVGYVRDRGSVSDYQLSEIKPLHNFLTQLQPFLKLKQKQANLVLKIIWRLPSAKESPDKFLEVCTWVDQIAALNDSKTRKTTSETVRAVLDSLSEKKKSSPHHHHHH

[5] = target: T5, CF2 rationally-designed meganuclease (I-CreI derivative)
T5 chain: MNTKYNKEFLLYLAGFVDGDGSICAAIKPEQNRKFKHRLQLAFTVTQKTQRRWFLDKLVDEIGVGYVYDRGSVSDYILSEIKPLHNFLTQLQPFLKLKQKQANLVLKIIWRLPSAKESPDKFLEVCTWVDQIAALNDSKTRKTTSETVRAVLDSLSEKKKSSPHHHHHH

[6] = target: T6, HGH2 rationally-designed meganuclease (I-CreI derivative; partner of CYP, half-site SEQ ID NO: 76)
T6 chain: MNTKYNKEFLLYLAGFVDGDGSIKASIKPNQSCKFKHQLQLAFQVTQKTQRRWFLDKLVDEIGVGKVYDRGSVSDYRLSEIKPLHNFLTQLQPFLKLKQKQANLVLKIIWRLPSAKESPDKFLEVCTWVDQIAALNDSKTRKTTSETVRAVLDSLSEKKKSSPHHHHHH

[7] = target: T7, HGH2 rationally-designed meganuclease (I-CreI derivative; partner of HGH1, half-site SEQ ID NO: 56)
T7 chain: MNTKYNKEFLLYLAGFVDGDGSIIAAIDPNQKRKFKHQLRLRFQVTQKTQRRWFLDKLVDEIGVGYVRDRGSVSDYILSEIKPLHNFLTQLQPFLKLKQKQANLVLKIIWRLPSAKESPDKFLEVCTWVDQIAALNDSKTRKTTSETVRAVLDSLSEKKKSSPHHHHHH

[8] = target: T8, URA2 rationally-designed meganuclease (I-CreI derivative)
T8 chain: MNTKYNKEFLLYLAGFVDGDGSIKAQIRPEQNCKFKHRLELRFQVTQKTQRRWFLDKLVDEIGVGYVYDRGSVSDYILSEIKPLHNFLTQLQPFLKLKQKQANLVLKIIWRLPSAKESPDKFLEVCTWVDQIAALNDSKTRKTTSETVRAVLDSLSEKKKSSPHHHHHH

[9] = target: T9, PDX2 rationally-designed meganuclease (I-CreI derivative)
T9 chain: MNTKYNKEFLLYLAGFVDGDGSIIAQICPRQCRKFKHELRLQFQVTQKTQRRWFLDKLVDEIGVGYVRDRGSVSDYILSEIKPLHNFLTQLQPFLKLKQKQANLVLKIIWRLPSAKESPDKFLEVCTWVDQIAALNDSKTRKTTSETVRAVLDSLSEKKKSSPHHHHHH

[10] = target: T10, LAM2 variant in which glutamic acids at positions 8 and 61 were changed to lysine
T10 chain: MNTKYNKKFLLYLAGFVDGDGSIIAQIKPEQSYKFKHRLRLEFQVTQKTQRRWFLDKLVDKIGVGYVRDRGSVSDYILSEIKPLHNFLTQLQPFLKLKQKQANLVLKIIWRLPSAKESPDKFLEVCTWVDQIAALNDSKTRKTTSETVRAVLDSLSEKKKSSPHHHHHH

[11] = target: T11, GLA2 rationally-designed meganuclease (I-CreI derivative)
T11 chain: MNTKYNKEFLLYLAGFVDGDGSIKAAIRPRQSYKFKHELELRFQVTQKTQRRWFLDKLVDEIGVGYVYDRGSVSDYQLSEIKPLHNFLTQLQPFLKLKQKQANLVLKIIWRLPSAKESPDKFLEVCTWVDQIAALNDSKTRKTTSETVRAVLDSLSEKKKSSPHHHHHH

[12] = target: T12, BRP2 rationally-designed meganuclease (I-CreI derivative)
T12 chain: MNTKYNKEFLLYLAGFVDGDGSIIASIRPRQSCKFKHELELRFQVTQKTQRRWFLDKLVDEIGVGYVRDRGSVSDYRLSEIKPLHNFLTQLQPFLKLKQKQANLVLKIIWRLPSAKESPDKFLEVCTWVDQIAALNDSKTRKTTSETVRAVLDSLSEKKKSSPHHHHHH

B1: ANT1 rationally-designed meganuclease (I-CreI derivative) (protein)
chain: MNTKYNKEFLLYLAGFVDGDGSIIAQIAPNQNCKFKHQLQLRFQVTQKTQRRWFLDKLVDEIGVGYVRDRGSVSDYILSEIKPLHNFLTQLQPFLKLKQKQANLVLKIIWRLPSAKESPDKFLEVCTWVDQIAALNDSKTRKTTSETVRAVLDSLSEKKKSSPHHHHHH
Question: With B1 as the protein, how does the “cleavage of a linearized DNA substrate containing the intended non-palindromic recognition sequence by the 1:1 mixture” value [1] read?
Answer: each rationally-designed meganuclease heterodimer cleaves its intended DNA site

B2: LAM1 rationally-designed meganuclease (I-CreI derivative) (protein)
chain: MNTKYNKEFLLYLAGFVDGDGSIIAQIDPRQCRKFKHELRLRFQVTQKTQRRWFLDKLVDEIGVGYVRDRGSVSDYILSEIKPLHNFLTQLQPFLKLKQKQANLVLKIIWRLPSAKESPDKFLEVCTWVDQIAALNDSKTRKTTSETVRAVLDSLSEKKKSSPHHHHHH
Question: Which “cleavage of the non-palindromic LAM1/LAM2 hybrid DNA site by a 1:1 mixture incubated at 42 C for 20 minutes” value [2] does the source give for B2 here?
Answer: The 1:1 mixture of LAM1 and LAM2, however, cleaves all three DNA sites

Question: What about the “cleavage of the non-palindromic LAM1/LAM2 hybrid DNA site by the co-expressed enzyme mixture” value [2] of the same protein?
Answer: The co-expressed enzyme mixture was found to cleave all three sites, including the LAM1/LAM2 hybrid site

B3: ACH1 rationally-designed meganuclease (I-CreI derivative) (protein)
chain: MNTKYNKEFLLYLAGFVDGDGSIIAAIDPEQDCKFKHRLRLRFQVTQKTQRRWFLDKLVDEIGVGYVRDRGSVSDYQLSEIKPLHNFLTQLQPFLKLKQKQANLVLKIIWRLPSAKESPDKFLEVCTWVDQIAALNDSKTRKTTSETVRAVLDSLSEKKKSSPHHHHHH
Question: With B3 as the protein, how does the “cleavage of a linearized DNA substrate containing the intended non-palindromic recognition sequence by the 1:1 mixture” value [3] read?
Answer: each rationally-designed meganuclease heterodimer cleaves its intended DNA site

B4: MGC1 rationally-designed meganuclease (I-CreI derivative) (protein)
chain: MNTKYNKEFLLYLAGFVDGDGSIKAQIKPNQCYKFKHQLQLAFQVTQKTQRRWFLDKLVDEIGVGYVYDRGSVSDYILSEIKPLHNFLTQLQPFLKLKQKQANLVLKIIWRLPSAKESPDKFLEVCTWVDQIAALNDSKTRKTTSETVRAVLDSLSEKKKSSPHHHHHH
Question: For B4, which “cleavage of a linearized DNA substrate containing the intended non-palindromic recognition sequence by the 1:1 mixture” value [4] is on record?
Answer: each rationally-designed meganuclease heterodimer cleaves its intended DNA site

B5: CF1 rationally-designed meganuclease (I-CreI derivative) (protein)
chain: MNTKYNKEFLLYLAGFVDGDGSICAQIKPNQSYKFKHQLQLAFQVTQKTQRRWFLDKLVDEIGVGYVHDRGSVSDYILSEIKPLHNFLTQLQPFLKLKQKQANLVLKIIWRLPSAKESPDKFLEVCTWVDQIAALNDSKTRKTTSETVRAVLDSLSEKKKSSPHHHHHH
Question: B5 was tested. Which “cleavage of a linearized DNA substrate containing the intended non-palindromic recognition sequence by the 1:1 mixture” value [5] did it give?
Answer: each rationally-designed meganuclease heterodimer cleaves its intended DNA site

B6: CYP rationally-designed meganuclease (I-CreI derivative) (protein)
chain: MNTKYNKEFLLYLAGFVDGDGSIIAAIKPNQDYKFKHQLRLAFQVTQKTQRRWFLDKLVDEIGVGYVYDRGSVSDYQLSEIKPLHNFLTQLQPFLKLKQKQANLVLKIIWRLPSAKESPDKFLEVCTWVDQIAALNDSKTRKTTSETVRAVLDSLSEKKKSSPHHHHHH
Question: Which “cleavage of a linearized DNA substrate containing the intended non-palindromic recognition sequence by the 1:1 mixture” value [6] does the source give for B6 here?
Answer: each rationally-designed meganuclease heterodimer cleaves its intended DNA site

B7: HGH1 rationally-designed meganuclease (I-CreI derivative) (protein)
chain: MNTKYNKEFLLYLAGFVDGDGSIIAQIDPNQDCKFKHQLRLRFQVTQKTQRRWFLDKLVDEIGVGYVRDRGSVSDYILSEIKPLHNFLTQLQPFLKLKQKQANLVLKIIWRLPSAKESPDKFLEVCTWVDQIAALNDSKTRKTTSETVRAVLDSLSEKKKSSPHHHHHH
Question: How did the “cleavage of a linearized DNA substrate containing the intended non-palindromic recognition sequence by the 1:1 mixture” value [7] turn out when B7 was run?
Answer: each rationally-designed meganuclease heterodimer cleaves its intended DNA site

B8: URA1 rationally-designed meganuclease (I-CreI derivative) (protein)
chain: MNTKYNKEFLLYLAGFVDGDGSIIAQIKPNQSCKFKHQLRLAFTVTQKTQRRWFLDKLVDEIGVGYVRDRGSVSDYILSEIKPLHNFLTQLQPFLKLKQKQANLVLKIIWRLPSAKESPDKFLEVCTWVDQIAALNDSKTRKTTSETVRAVLDSLSEKKKSSPHHHHHH
Question: How did the “cleavage of a linearized DNA substrate containing the intended non-palindromic recognition sequence by the 1:1 mixture” value [8] turn out when B8 was run?
Answer: each rationally-designed meganuclease heterodimer cleaves its intended DNA site

B9: PDX1 rationally-designed meganuclease (I-CreI derivative) (protein)
chain: MNTKYNKEFLLYLAGFVDGDGSIIAQIKPNQNCKFKHQLQLAFQVTQKTQRRWFLDKLVDEIGVGYVRDRGSVSDYILSEIKPLHNFLTQLQPFLKLKQKQANLVLKIIWRLPSAKESPDKFLEVCTWVDQIAALNDSKTRKTTSETVRAVLDSLSEKKKSSPHHHHHH
Question: With B9 as the protein, how does the “cleavage of a linearized DNA substrate containing the intended non-palindromic recognition sequence by the 1:1 mixture” value [9] read?
Answer: each rationally-designed meganuclease heterodimer cleaves its intended DNA site

B10: LAM1 variant in which lysines at positions 7, 57 and 96 were changed to glutamic acids (protein)
chain: MNTKYNEEFLLYLAGFVDGDGSIIAQIDPRQCRKFKHELRLRFQVTQKTQRRWFLDELVDEIGVGYVRDRGSVSDYILSEIKPLHNFLTQLQPFLELKQKQANLVLKIIWRLPSAKESPDKFLEVCTWVDQIAALNDSKTRKTTSETVRAVLDSLSEKKKSSPHHHHHH
Question: B10 was tested. Which “cleavage of the LAM1/LAM2 hybrid site against the two palindromic sites by the co-expressed interface variants” value [10] did it give?
Answer: the LAM1/LAM2 hybrid site was found to be cleaved preferentially over the two palindromic sites

B11: GLA1 rationally-designed meganuclease (I-CreI derivative) (protein)
chain: MNTKYNKEFLLYLAGFVDGDGSIKAAIKPRQSYKFKHELSLAFQVTQKTQRRWFLDKLVDEIGVGYVYDRGSVSDYQLCEIKPLHNFLTQLQPFLKLKQKQANLVLKIIWRLPSAKESPDKFLEVCTWVDQIAALNDSKTRKTTSETVRAVLDSLSEKKKSSPHHHHHH
Question: Which “cleavage of a linearized DNA substrate containing the intended non-palindromic recognition sequence by the 1:1 mixture” value [11] does the source give for B11 here?
Answer: each rationally-designed meganuclease heterodimer cleaves its intended DNA site

B12: BRP1 rationally-designed meganuclease (I-CreI derivative) (protein)
chain: MNTKYNKEFLLYLAGFVDGDGSIKAQIRPRQCRKFKHELELAFQVTQKTQRRWFLDKLVDEIGVGKVYDRGSVSDYELSEIKPLHNFLTQLQPFLKLKQKQANLVLKIIWRLPSAKESPDKFLEVCTWVDQIAALNDSKTRKTTSETVRAVLDSLSEKKKSSPHHHHHH
Question: Which “cleavage of a linearized DNA substrate containing the intended non-palindromic recognition sequence by the 1:1 mixture” value [12] does the source give for B12 here?
Answer: each rationally-designed meganuclease heterodimer cleaves its intended DNA site
